# Results as given in patent publication US8461322B2, “Plant 1-deoxy-D-xylulose 5-phosphate reductoisomerase” (E I du Pont de Nemours and Company, priority 1998, dated 2013).
# Assay: Recombinant DXR activity, non-radioactive kinetic assay (oxidation of NADPH monitored at 340 nm)
# Assay type: biochemical
# Conditions: Ni-Agarose purified His-tagged protein expressed in E. coli, 100 mM Hepes pH 7.5, 1 mM MnCl2, NADPH, 0.3 mM DXP, room temperature
# Protocol: Recombinant His-tagged DXR proteins were purified from E. coli using Ni-Agarose. Recombinant DXR activity was measured using a non-radioactive kinetic assay (Kuzuyama et al. (1998) Tetrahedron Lett 39:7913-7916). The assay mixture contained the following: 100 mM Hepes (pH 7.5); 1 mM MnCl2; […] NADPH, DXR, and 0.3 mM 1-deoxy-D-xylulose […] (DXP). The final volume of the reaction mixture was 200 μl and the assay was initiated by adding the substrate. The assay was run at room temperature on a plate reader. The oxidation of NADPH was monitored at 340 nm. The DXR activity was determined from the slope of the kinetic curve.
row,Molecule,DXR activity (oxidation of NADPH)
1,"truncated rice His-DXR (SEQ ID NO:30): rice DXR protein in which the first fifty-one amino acids have been removed and replaced with a twenty amino acid His-tag (protein, His-tag; His-tagged truncated rice 1-deoxy-D-xylulose 5-phosphate reductoisomerase) MGSSHHHHHHSSGLVPRGSHMQQAPPPAWPGRAVVEPGRRSWDGPKPISIVGSTGSIGTQTLDIVAENPDKFRVVALAAGSNVTLLADQVKTFKPKLVAVRNESLVDELKEALADCDWKPEIIPGEQGVIEVARHPDAVTVVTGIVGCAGLKPTVAAIEAGKDIALANKETLIAGGPFVLPLAQKHKVKILPADSEHSAIFQCIQGLPEGALRRIILTASGGAFRDWPVDKLKEVKVADALKHPNWNMGKKITVDSATLFNKGLEVIEAHYLFGAEYDDIEIVIHPQSIIHSMIETQDSSVLAQLGWPDMRIPTLYTMSWPDRIYCSEVTWPRLDLCKLGSLTFKAPDNVKYPSMDLAYAAGRAGGTMTGVLSAANEKAVELFIDEKIGYLDIFKVVELTCDAHRNELVTRPSLEEIIHYDLWAREYAASLQPSTGLSPVPV",no oxidation of NADPH was detected
2,"second truncated rice His-DXR (SEQ ID NO:31): rice DXR protein in which the first seventy-six amino acids have been removed and replaced with a twenty-one amino acid His-tag (protein, His-tag; His-tagged truncated rice 1-deoxy-D-xylulose 5-phosphate reductoisomerase) MGSSHHHHHHSSGLVPRGSHMKPISIVGSTGSIGTQTLDIVAENPDKFRVVALAAGSNVTLLADQVKTFKPKLVAVRNESLVDELKEALADCDWKPEIIPGEQGVIEVARHPDAVTVVTGIVGCAGLKPTVAAIEAGKDIALANKETLIAGGPFVLPLAQKHKVKILPADSEHSAIFQCIQGLPEGALRRIILTASGGAFRDWPVDKLKEVKVADALKHPNWNMGKKITVDSATLFNKGLEVIEAHYLFGAEYDDIEIVIHPQSIIHSMIETQDSSVLAQLGWPDMRIPTLYTMSWPDRIYCSEVTWPRLDLCKLGSLTFKAPDNVKYPSMDLAYAAGRAGGTMTGVLSAANEKAVELFIDEKIGYLDIFKVVELTCDAHRNELVTRPSLEEIIHYDLWAREYAASLQPSTGLSPVPV",no oxidation of NADPH was detected
3,"E. coli His-DXR: His-tagged E. coli 1-deoxy-D-xylulose 5-phosphate reductoisomerase (protein, His tag; His-tagged E. coli 1-deoxy-D-xylulose 5-phosphate reductoisomerase) MGSSHHHHHHSSGLVPRGSHMKQLTILGSTGSIGCSTLDVVRHNPEHFRVVALVAGKNVTRMVEQCLEFSPRYAVMDDEASAKLLKTMLQQQGSRTEVLSGQQAACDMAALEDVDQVMAAIVGAAGLLPTLAAIRAGKTILLANKESLVTCGRLFMDAVKQSKAQLLPVDSEHNAIFQSLPQPIQHNLGYADLEQNGVVSILLTGSGGPFRETPLRDLATMTPDQACRHPNWSMGRKISVDSATMMNKGLEYIEARWLFNASASQMEVLIHPQSVIHSMVRYQDGSVLAQLGEPDMRTPIAHTMAWPNRVNSGVKPLDFCKLSALTFAAPDYDRYPCLKLAMEAFEQGQAATTALNAANEITVAAFLAQQIRFTDIAALNLSVLEKMDMREPQCVDDVLSVDASAREVARKEVMRLAS",DXR activity was detected
4,"Synechocystis His-DXR: His-tagged Synechocystis 1-deoxy-D-xylulose 5-phosphate reductoisomerase (protein, His-tag; His-tagged Synechocystis 1-deoxy-D-xylulose 5-phosphate reductoisomerase) MGSSHHHHHHSSGLVPRGSHMVKRISILGSTGSIGTQTLDIVTHHPDAFQVVGLAAGGNVALLAQQVAEFRPEIVAIRQAEKLEDLKAAVAELTDYQPMYVVGEEGVVEVARYGDAESVVTGIVGCAGLLPTMAAIAAGKDIALANKETLIAGAPVVLPLVEKMGVKLLPADSEHSAIFQCLQGVPEGGLRRIILTASGGAFRDLPVERLPFVTVQDALKHPNWSMGQKITIDSATLMNKGLEVIEAHYLFGLDYDHIDIVIHPQSIIHSLIEVQDTSVLAQLGWPDMRLPLLYALSWPERIYTDWEPLDLVKAGSLSFREPDHDKYPCMQLAYGAGRAGGAMPAVLNAANEQAVALFLQEKISFLDIPRLIEKTCDLYVGQNTASPDLETILAADQWARRTVLENSACVATRP",DXR activity was detected
